From the supplement of paper PMC7877785
± gives the uncertainty stated by the source.

Assay: self-splicing fitness, log relative to wild type (ln ratio); higher = more splicing; Tetrahymena group I intron in knt gene, E. coli kanamycin selection, DiMSum; sequences stand for … in CUCUCU…GGAGGGAAAAGUUAUCAGGCAUGCACCUGGUAGCUAGUCUUUAAACCAAUAGAUUGCAUCGGUUUAAAAGGCAAGACCGUCAAAUUGCGGGAAAGGGGUCAACAGCCGUUCAGUACCAAGUCUCAGGGGAAACUUUGAGAUGGCCUUGCAAAGGGUAUGGUAAUAAGCUGACGGACAUGGUCCUAACCACGCAGCCAAGUCCUAAGUCAACAGAUCUUCUGUUGAUAUGGAUGCAGUUCACAGACUAAAUGUCGGUCGGGGAAGAUGUAUUCUUCUCAUAAGAUAUAGUCGGACCUCUCCUUAAUGGGAGCUAGCGGAUGAAGUGAUGCAACACUGGAGCCGCUGGGAACUAAUUUGUAUGCGAAAGUAUAUUGAUUAGUUUUGGAGUACUCGUGGUCG
Outline: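 DiMSum derived fitness as the error-weighted combination of fold changes across replicates, kanamycin versus no kanamycin, normalised to wild type. E. coli BL21(DE3) held the library, which randomised all eight P1ex-region intron nucleotides within the knt kanamycin-resistance gene on pET-22b(+). Six replicate transformations grew overnight at 37°C or 30°C on LB agar with or without 25 μg/mL kanamycin, also containing 100 μg/mL carbenicillin, 50 μM IPTG and 0.2% rhamnose, and pooled colonies were amplicon-sequenced on an Illumina HiSeq 2500.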

Sequence | self-splicing fitness (ln) (30 °C) | self-splicing fitness (ln) (37 °C)
CCGAAGCAAUAUUACGGCAG | -2.86 ± 0.15 | -1.44 ± 0.16
CCGAAGCAAUAUUACGGCGU | -3.6 ± 0.17 | -2.79 ± 0.17
CCGAAGCAAUAUUACGGCUC | -3.57 ± 0.32 | -2.81 ± 0.35
CCGAAGCAAUAUUACGGGCU | -4.21 ± 0.23 | -2.36 ± 0.2
CCGAAGCAAUAUUACGGUUG | -1.84 ± 0.059 | -0.955 ± 0.072
CCGAAGCAAUAUUACGUAGG | -3.15 ± 0.17 | -2.65 ± 0.23
CCGAAGCAAUAUUACGUAGU | -3.44 ± 0.17 | -3.21 ± 0.23
CCGAAGCAAUAUUACGUCUC | -3.9 ± 0.28 | -3.47 ± 0.2
CCGAAGCAAUAUUACGUUCU | -3.84 ± 0.26 | -3.37 ± 0.24
CCGCAGCAAUAUUACGAAUA | -3.37 ± 0.38 | -2.62 ± 0.38
CCGCAGCAAUAUUACGAAUC | -1.78 ± 0.17 | 
CCGCAGCAAUAUUACGAAUG | -1.2 ± 0.063 | -0.305 ± 0.065
CCGCAGCAAUAUUACGAAUU | -3.73 ± 0.19 | -2.51 ± 0.2
CCGCAGCAAUAUUACGAGGC | -3.72 ± 0.19 | -2.65 ± 0.23
CCGCAGCAAUAUUACGAGUC | -3.36 ± 0.26 | -3.29 ± 0.28
CCGCAGCAAUAUUACGAUCU | -3.81 ± 0.29 | -2.35 ± 0.26
CCGCAGCAAUAUUACGAUUA | -3.03 ± 0.23 | -2.72 ± 0.29
CCGCAGCAAUAUUACGCAAC | -3.22 ± 0.19 | -3.07 ± 0.32
CCGCAGCAAUAUUACGCAAU | -3.95 ± 0.18 | -3.67 ± 0.27
CCGCAGCAAUAUUACGCACG | -0.993 ± 0.097 | -0.578 ± 0.11
CCGCAGCAAUAUUACGCCUG | -1.69 ± 0.13 | -1.22 ± 0.16
CCGCAGCAAUAUUACGCGAA | -2.87 ± 0.18 | -2.5 ± 0.18
CCGCAGCAAUAUUACGCGAC | -2.84 ± 0.17 | -2.09 ± 0.26
CCGCAGCAAUAUUACGCUUA | -3.07 ± 0.17 | -2.9 ± 0.25
CCGCAGCAAUAUUACGGAUG | -1.99 ± 0.12 | -1.54 ± 0.13

Sequence | self-splicing fitness (ln) (30 °C) | self-splicing fitness (ln) (37 °C)
CCGCAGCAAUAUUACGGCAG | -1.4 ± 0.081 | 0.0999 ± 0.098
CCGCAGCAAUAUUACGGCCG | -0.461 ± 0.12 | 0.198 ± 0.15
CCGCAGCAAUAUUACGGCGU | -2.44 ± 0.081 | -1.27 ± 0.096
CCGCAGCAAUAUUACGUCAC | -4.14 ± 0.19 | -2.84 ± 0.22
CCGCAGCAAUAUUACGUCAU | -3.18 ± 0.15 | -2.25 ± 0.2
CCGCAGCAAUAUUACGUCUC | -3.13 ± 0.24 | -2.56 ± 0.26
CCGCAGCAAUAUUACGUGAG | -0.587 ± 0.038 | -0.367 ± 0.051
CCGCAGCAAUAUUACGUUAU | -3.43 ± 0.17 | -2.77 ± 0.19
CCGCAGCAAUAUUACGUUGG | -3.26 ± 0.22 | -1.52 ± 0.2
CCGGAGCAAUAUUACGAACG | -0.608 ± 0.16 | 0.0318 ± 0.19
CCGGAGCAAUAUUACGAUAC |  | -1.97 ± 0.36
CCGGAGCAAUAUUACGAUAU |  | -2.37 ± 0.42
CCGGAGCAAUAUUACGAUCA | -3.1 ± 0.42 | -2.63 ± 0.44
CCGGAGCAAUAUUACGCAGG | -3.9 ± 0.27 | -2.67 ± 0.23
CCGGAGCAAUAUUACGCAUG | -1.66 ± 0.14 | 0.0371 ± 0.22
CCGGAGCAAUAUUACGGAGU | -3.65 ± 0.2 | -3.41 ± 0.24
CCGGAGCAAUAUUACGGAUA | -2.42 ± 0.2 | -1.18 ± 0.23
CCGGAGCAAUAUUACGGCAC |  | -0.904 ± 0.44
CCGGAGCAAUAUUACGGCAG | -3.21 ± 0.24 | -3.16 ± 0.33
CCGGAGCAAUAUUACGGCAU | -2.81 ± 0.22 | -1.55 ± 0.19
CCGGAGCAAUAUUACGGCUG | -1.14 ± 0.15 | -0.43 ± 0.18
CCGGAGCAAUAUUACGGUAC | -2.73 ± 0.22 | -2.25 ± 0.4
CCGGAGCAAUAUUACGGUCU | -2.42 ± 0.22 | -2.54 ± 0.38
CCGGAGCAAUAUUACGGUGG | -3.8 ± 0.37 | -2.61 ± 0.36
CCGGAGCAAUAUUACGUGAG | -1.33 ± 0.12 | -0.689 ± 0.1

Sequence | self-splicing fitness (ln) (30 °C) | self-splicing fitness (ln) (37 °C)
CCGGAGCAAUAUUACGUGGA | -3.59 ± 0.47 | -2.16 ± 0.25
CCGUAGCAAUAUUACGAAGA | -3.8 ± 0.35 | -2.08 ± 0.24
CCGUAGCAAUAUUACGACAC | -1.82 ± 0.22 | 
CCGUAGCAAUAUUACGACAG | -0.678 ± 0.11 | -0.234 ± 0.13
CCGUAGCAAUAUUACGACCU | -0.833 ± 0.34 | 
CCGUAGCAAUAUUACGACGG |  | -0.894 ± 0.28
CCGUAGCAAUAUUACGAGCG | -0.86 ± 0.12 | -0.719 ± 0.15
CCGUAGCAAUAUUACGAGGA | -2.96 ± 0.24 | -1.24 ± 0.18
CCGUAGCAAUAUUACGAUGG | -3.58 ± 0.2 | -3.38 ± 0.26
CCGUAGCAAUAUUACGAUUA | -2.57 ± 0.2 | -1.86 ± 0.26
CCGUAGCAAUAUUACGAUUU | -3.55 ± 0.17 | -2.08 ± 0.17
CCGUAGCAAUAUUACGCAAC | -4.04 ± 0.26 | -2.13 ± 0.21
CCGUAGCAAUAUUACGCACA | -3.79 ± 0.31 | -1.44 ± 0.36
CCGUAGCAAUAUUACGCGCU | -3.4 ± 0.4 | -1.57 ± 0.3
CCGUAGCAAUAUUACGCUGA | -2.87 ± 0.31 | -2.06 ± 0.28
CCGUAGCAAUAUUACGCUUA | -3.52 ± 0.45 | -1.7 ± 0.35
CCGUAGCAAUAUUACGGAGU | -2.68 ± 0.16 | -2.33 ± 0.22
CCGUAGCAAUAUUACGGAUG | -3.56 ± 0.3 | -2.11 ± 0.23
CCGUAGCAAUAUUACGGCUU | -3.06 ± 0.35 | -3.06 ± 0.43
CCGUAGCAAUAUUACGGUAU | -4.05 ± 0.21 | -2.85 ± 0.2
CCGUAGCAAUAUUACGGUGU | -3.66 ± 0.17 | -1.85 ± 0.11
CCGUAGCAAUAUUACGUAGA | -3.28 ± 0.22 | -1.41 ± 0.13
CCGUAGCAAUAUUACGUCCG | 0.211 ± 0.094 | 0.319 ± 0.11
CCGUAGCAAUAUUACGUCGG | -3.57 ± 0.17 | -3.02 ± 0.23
CCGUAGCAAUAUUACGUGCU |  | -1.98 ± 0.19

Sequence | self-splicing fitness (ln) (30 °C) | self-splicing fitness (ln) (37 °C)
CCGUAGCAAUAUUACGUGGA | -3.1 ± 0.32 | -2.84 ± 0.21
CCGUAGCAAUAUUACGUGUA | -3.5 ± 0.2 | -3.25 ± 0.29
CCUAAGCAAUAUUACGACAU | -3.909 ± 0.025 | -2.82 ± 0.038
CCUAAGCAAUAUUACGAGGU | -4.68 ± 0.25 | -3.38 ± 0.18
CCUAAGCAAUAUUACGAUCA | -3.57 ± 0.28 | -3 ± 0.25
CCUAAGCAAUAUUACGAUCU | -3.39 ± 0.35 | -3.07 ± 0.28
CCUAAGCAAUAUUACGCAAA | -3.38 ± 0.36 | -1.76 ± 0.3
CCUAAGCAAUAUUACGCAGC | -3.07 ± 0.29 | -2.46 ± 0.24
CCUAAGCAAUAUUACGCAGU | -3.23 ± 0.19 | -1.76 ± 0.19
CCUAAGCAAUAUUACGCUCC | -4.01 ± 0.46 | -2.97 ± 0.29
CCUAAGCAAUAUUACGGACA | -1.7 ± 0.31 | -2.24 ± 0.31
CCUAAGCAAUAUUACGGCAU | -3.48 ± 0.22 | -1.98 ± 0.19
CCUAAGCAAUAUUACGGCGC | -3.12 ± 0.29 | -3.22 ± 0.33
CCUAAGCAAUAUUACGGGCA | -3.62 ± 0.25 | -2.85 ± 0.24
CCUAAGCAAUAUUACGUAAG | -0.318 ± 0.064 | -0.35 ± 0.087
CCUAAGCAAUAUUACGUGCU | -3 ± 0.24 | -2.55 ± 0.36
CCUAAGCAAUAUUACGUUCG | -2.38 ± 0.091 | -2.02 ± 0.11
CCUCAGCAAUAUUACGAAUA | -1.54 ± 0.2 | -2.78 ± 0.4
CCUCAGCAAUAUUACGACAG | -1.06 ± 0.066 | -0.262 ± 0.079
CCUCAGCAAUAUUACGACGG | -2.74 ± 0.18 | -1.64 ± 0.27
CCUCAGCAAUAUUACGACUG | -3.09 ± 0.23 | -2.76 ± 0.21
CCUCAGCAAUAUUACGAGAU | -3.32 ± 0.18 | -3.16 ± 0.24
